Among the data in US20260365696A1, “INHIBITORS OF PTP1B / NCK1 INTERACTION AND METHODS OF MAKING AND USING SAME” (Radella Pharmaceuticals LLC, priority 2023, published 2026) are Kd values, retold here.

As a reminder, the Kd is the constant that tells how readily two partners part at equilibrium. A low value points to tighter binding.

Some results are limits rather than exact numbers.

First the molecules themselves.
T1: NCK1 SH3-2 domain (human)
T1 chain: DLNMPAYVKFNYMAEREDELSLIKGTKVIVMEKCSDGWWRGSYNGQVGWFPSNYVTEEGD

B1: MSJ012 (peptide)
chain: Ac-APPEHIPPPPRPPKR-NH2
B2: MSJ015 (peptide)
chain: Ac-PPPAHIPPPPRPPKR-NH2
B3: MSJ017 (peptide)
chain: Ac-PPPEHAPPPPRPPKR-NH2
B4: MSJ013 (peptide)
chain: Ac-PAPEHIPPPPRPPKR-NH2
B5: MSJ016 (peptide)
chain: Ac-PPPEAIPPPPRPPKR-NH2
B6: MH001 (peptide)
chain: Ac-PPPEHIPPAPRPPKR-NH2
B7: MH003 (peptide)
chain: Ac-PPPEHIPPPPAPPKR-NH2
B8: MH005 (peptide)
chain: Ac-PPPEHIPPPPRPAKR-NH2
B9: MSJ014 (peptide)
chain: Ac-PPAEHIPPPPRPPKR-NH2
B10: MD17 (peptide)
chain: Ac-PPPEHIPPPPRPPKR-NH2
B11: MH122 (peptide)
chain: Ac-PPRPPYR-NH2
B12: MH085 (peptide)
chain: Ac-PPRPPDR-NH2
B13: MH094 (peptide)
chain: Ac-PPRPPGR-NH2
B14: MH105 (peptide)
chain: Ac-PPRPPFR-NH2
B15: MH088 (peptide)
chain: Ac-PPRPPQR-NH2
B16: MH126 (peptide)
chain: Ac-PPRPPVR-NH2
B17: MH116 (peptide)
chain: Ac-PPRPPTR-NH2
B18: MH050 (peptide)
chain: Ac-PPRPPWR-NH2
B19: MH102 (peptide)
chain: Ac-PPRPPLR-NH2
B20: MH107 (peptide)
chain: Ac-PPRPPPR-NH2
B21: MH053 (peptide)
chain: Ac-PPRPPNR-NH2
B22: MH048 (peptide)
chain: Ac-PPRPPRR-NH2
B23: MH052 (peptide)
chain: Ac-PPRPPSR-NH2
B24: MH098 (peptide)
chain: Ac-PPRPPIR-NH2
B25: MH112 (peptide)
chain: Ac-PPRPPMR-NH2
B26: MH049 (peptide)
chain: Ac-PPRPPHR-NH2
B27: MH054 (peptide)
chain: Ac-PPRPPCR-NH2
B28: MH051 (peptide)
chain: Ac-PPRPPER-NH2
B29: MH123 (peptide)
chain: Ac-VPRPPKR-NH2
B30: MH073 (peptide)
chain: Ac-FPRPPKR-NH2
B31: MH068 (peptide)
chain: Ac-RPRPPKR-NH2
B32: MH113 (peptide)
chain: Ac-TPRPPKR-NH2
B33: MH152 (peptide)
chain: Ac-PPRPPKRS-NH2
B34: MH149 (peptide)
chain: Ac-PPRPPKRM-NH2
B35: MH142 (peptide)
chain: Ac-PPRPPKRC-NH2
B36: MH151 (peptide)
chain: Ac-PPRPPKRP-NH2
B37: MH154 (peptide)
chain: Ac-PPRPPKRW-NH2
B38: MH147 (peptide)
chain: Ac-PPRPPKRL-NH2
B39: MH148 (peptide)
chain: Ac-PPRPPKRK-NH2
B40: MH150 (peptide)
chain: Ac-PPRPPKRF-NH2
B41: MH141 (peptide)
chain: Ac-PPRPPKRD-NH2
B42: MH146 (peptide)
chain: Ac-PPRPPKRH-NH2
B43: MH138 (peptide)
chain: Ac-PPRPPKRA-NH2
B44: MH145 (peptide)
chain: Ac-PPRPPKRG-NH2
B45: MH139 (peptide)
chain: Ac-PPRPPKRR-NH2
B46: MH140 (peptide)
chain: Ac-PPRPPKRN-NH2
B47: MH155 (peptide)
chain: Ac-PPRPPKRY-NH2
B48: MH106 (peptide)
chain: Ac-PPPPPKR-NH2
B49: MH084 (peptide)
chain: Ac-PPDPPKR-NH2
B50: MH061 (peptide)
chain: Ac-PPCPPKR-NH2
B51: MH066 (peptide)
chain: Ac-PPFPPKR-NH2
B52: MH060 (peptide)
chain: Ac-PPNPPKR-NH2
B53: MH124 (peptide)
chain: Ac-PPVPPKR-NH2
B54: MH055 (peptide)
chain: Ac-PPKPPKR-NH2
B55: MH087 (peptide)
chain: Ac-PPQPPKR-NH2
B56: MH114 (peptide)
chain: Ac-PPTPPKR-NH2
B57: MH058 (peptide)
chain: Ac-PPEPPKR-NH2
B58: MH100 (peptide)
chain: Ac-PPLPPKR-NH2
B59: MH120 (peptide)
chain: Ac-PPYPPKR-NH2
B60: MH092 (peptide)
chain: Ac-PPGPPKR-NH2
B61: MH057 (peptide)
chain: Ac-PPHPPKR-NH2
B62: MH110 (peptide)
chain: Ac-PPMPPKR-NH2
B63: MH056 (peptide)
chain: Ac-PPWPPKR-NH2
B64: MH096 (peptide)
chain: Ac-PPIPPKR-NH2
B65: MH059 (peptide)
chain: Ac-PPSPPKR-NH2

The first test addresses T1, NCK1 SH3-2 domain. Briefly: ITC. For orientation: In ITC the heat of successive injections is recorded.
B1 returned a Kd below 300 µM.
The molecule B2 registered a Kd below 300 µM.
Still for that read-out and setting: with B3 the figure was below 300 µM; with B4, below 300 µM.
Molecule B5 displayed a Kd below 300 µM.
In the case of B6, the Kd is below 300 µM.
Same read-out and setting: the same measure for B7: below 300 µM; for B8: above 1000 µM; for B9: below 300 µM.
Still for that read-out and setting: with B10 the figure was below 300 µM.

The next test concerns the target T1, NCK1 SH3-2 domain. Briefly: ITC. The source holds these as a separate data set.
B11 showed a Kd below 300 µM.
Still for that read-out and setting: with B12 the figure was below 600 µM; with B13, above 600 µM; with B14, below 600 µM.
On to B15, for which the Kd is below 300 µM.
B16: the Kd is below 300 µM.
On the same count and under the same terms, with B17 the figure was below 300 µM; with B18, below 300 µM; with B19, below 300 µM.
Molecule B20 gave a Kd below 300 µM.
B21: the Kd is below 300 µM.
The same measure, in the same setting: the same measure for B22: below 300 µM; for B23: below 300 µM; for B24: below 300 µM.
The same measure, in the same setting: with B25 the figure was below 300 µM; with B26, below 300 µM; with B27, below 300 µM.
The same measure, in the same setting: with B28 the figure was below 300 µM.

A further test has as its target T1, NCK1 SH3-2 domain. Briefly: ITC. The source holds these as a separate data set.
B29 gave a Kd below 300 µM.
B30 had a Kd below 300 µM.
Molecule B31 displayed a Kd below 300 µM.
On the same count and under the same terms, the same measure for B32: below 300 µM.

A further test deals with T1, NCK1 SH3-2 domain. Nature of the test: ITC. The source holds these as a separate data set.
The molecule B33 yielded a Kd below 300 µM.
Still for that read-out and setting: the same measure for B34: below 300 µM.
Still for that read-out and setting: the same measure for B35: below 300 µM.
On the same count and under the same terms, the same measure for B36: below 600 µM; for B37: below 300 µM.
In the case of B38, the equilibrium dissociation constant (Kd) was below 300 µM.
Turning to B39, the Kd was below 300 µM.
Molecule B40 yielded a Kd below 300 µM.
B41: the Kd is below 300 µM.
The same measure, in the same setting: the same measure for B42: below 300 µM; for B43: below 300 µM; for B44: below 300 µM.
Same read-out and setting: with B45 the figure was below 300 µM; with B46, below 300 µM; with B47, below 300 µM.

Another test addresses T1, NCK1 SH3-2 domain. Nature of the test: ITC. This is another data set of the same source.
With B48, the Kd is below 300 µM.
The molecule B49 returned a Kd below 300 µM.
Turning to B50, the Kd was below 300 µM.
Still for that read-out and setting: with B51 the figure was below 300 µM.
On the same count and under the same terms, with B52 the figure was below 300 µM; with B53, below 300 µM.
Same read-out and setting: the same measure for B54: below 300 µM; for B55: below 300 µM; for B56: below 300 µM.
Molecule B57 displayed a Kd below 300 µM.
Still for that read-out and setting: the same measure for B58: below 300 µM.
The molecule B59 registered a Kd below 300 µM.
The molecule B60 yielded a Kd above 600 µM.
The same measure, in the same setting: with B61 the figure was below 300 µM; with B62, below 300 µM.
On the same count and under the same terms, the same measure for B63: below 600 µM.
Still for that read-out and setting: the same measure for B64: below 300 µM; for B65: below 300 µM.
